Measurements: article PMC7393995

Target: CD162 (P-selectin glycoprotein ligand-1), mouse, on MLL-AF9 AML blasts (mouse (endogenous in murine MLL-AF9 AML blasts)) (UniProt Q62170)
Test: flow cytometry on cells; E-selectin–IgM supernatant precomplexed with AF647 anti-human IgM F(ab)2, added to KIT+-enriched BM cells from leukemic mice (WT or Selplg-/- MLL-AF9 AML), 30 min on ice; gated on GFP+ KIT+ blasts; control: empty-vector IgM

Sequence of UniProt Q62170 (Q62170 42-397): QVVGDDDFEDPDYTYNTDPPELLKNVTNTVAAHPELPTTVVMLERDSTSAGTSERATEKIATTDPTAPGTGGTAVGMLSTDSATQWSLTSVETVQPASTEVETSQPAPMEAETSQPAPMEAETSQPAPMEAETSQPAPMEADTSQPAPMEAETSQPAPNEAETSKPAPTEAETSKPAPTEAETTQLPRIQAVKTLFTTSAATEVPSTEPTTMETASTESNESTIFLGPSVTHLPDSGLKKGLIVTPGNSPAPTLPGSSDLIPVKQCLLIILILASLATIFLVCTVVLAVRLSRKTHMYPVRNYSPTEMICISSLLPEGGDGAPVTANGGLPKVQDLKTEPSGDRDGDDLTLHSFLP

recombinant E-selectin–human-IgM fusion protein (from UniProt P16581 22-610)
percent of gated AML blasts that bound E-selectin–IgM: 65%
